Molecular target: T1, Angptl2-FLAG (human, UniProt Q9UKU9 23-493)
T1 sequence (looked up): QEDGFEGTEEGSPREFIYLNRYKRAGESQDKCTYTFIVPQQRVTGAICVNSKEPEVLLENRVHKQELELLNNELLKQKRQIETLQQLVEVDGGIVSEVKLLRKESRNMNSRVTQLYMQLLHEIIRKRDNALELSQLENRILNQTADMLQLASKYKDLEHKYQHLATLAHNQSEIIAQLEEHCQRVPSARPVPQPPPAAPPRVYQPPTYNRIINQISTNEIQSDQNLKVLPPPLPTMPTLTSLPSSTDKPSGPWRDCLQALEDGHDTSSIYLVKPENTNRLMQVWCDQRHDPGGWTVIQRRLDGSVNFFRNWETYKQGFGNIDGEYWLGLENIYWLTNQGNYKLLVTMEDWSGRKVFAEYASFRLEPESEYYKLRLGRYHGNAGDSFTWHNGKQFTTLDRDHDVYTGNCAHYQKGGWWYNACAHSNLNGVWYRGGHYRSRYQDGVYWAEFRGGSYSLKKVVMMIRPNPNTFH
Experiment: co-IP

B1: LILRB2 extracellular domain (ECD) fused to human IgG-Fc (Fc fusion, UniProt Q8N423 22-460, looked up)
chain: QTGTIPKPTLWAEPDSVITQGSPVTLSCQGSLEAQEYRLYREKKSASWITRIRPELVKNGQFHIPSITWEHTGRYGCQYYSRARWSELSDPLVLVMTGAYPKPTLSAQPSPVVTSGGRVTLQCESQVAFGGFILCKEGEDEHPQCLNSQPHARGSSRAIFSVGPVSPNRRWSHRCYGYDLNSPYVWSSPSDLLELLVPGVSKKPSLSVQPGPVMAPGESLTLQCVSDVGYDRFVLYKEGERDLRQLPGRQPQAGLSQANFTLGPVSRSYGGQYRCYGAHNLSSECSAPSDPLDILITGQIRGTPFISVQPGPTVASGENVTLLCQSWRQFHTFLLTKAGAADAPLRLRSIHEYPKYQAEFPMSPVTSAHAGTYRCYGSLNSDPYLLSHPSEPLELVVSGPSMGSSPPPTGPISTPGPEDQPLTPTGSDPQSGLGRHLGV
**Q.** Does B1 bind?
**A.** binds

Reference: PMC3367397 (Nature, 2012)
